Like-named read-outs stand apart in the source and are kept apart here.

The target of experiment [1] is T1, FcγRIa extracellular domain with C-terminal His tag (human, UniProt P12314 16-292).
T1 construct: extracellular domain
As to the kind of experiment: SPR (Biacore), captured antibody, FcγR analyte, 1:1 Langmuir fit.

For experiment [2], the target named is T2, FcγRIIa(R) extracellular domain with C-terminal His tag (human, UniProt P12318 34-217).
T2 construct: extracellular domain; polymorphic form R131; also called FcγRIIa R type
T2 sequence: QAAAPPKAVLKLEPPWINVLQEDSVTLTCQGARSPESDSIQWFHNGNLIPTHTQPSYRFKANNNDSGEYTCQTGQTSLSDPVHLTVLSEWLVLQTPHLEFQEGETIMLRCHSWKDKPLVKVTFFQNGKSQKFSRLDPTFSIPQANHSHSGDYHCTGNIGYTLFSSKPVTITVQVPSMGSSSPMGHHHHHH
Described as above.

The target of experiment [3] is T3, FcγRIIa(H) extracellular domain with C-terminal His tag (human, UniProt P12318 34-217).
T3 construct: extracellular domain; polymorphic form H131; also called FcγRIIa H type
T3 sequence: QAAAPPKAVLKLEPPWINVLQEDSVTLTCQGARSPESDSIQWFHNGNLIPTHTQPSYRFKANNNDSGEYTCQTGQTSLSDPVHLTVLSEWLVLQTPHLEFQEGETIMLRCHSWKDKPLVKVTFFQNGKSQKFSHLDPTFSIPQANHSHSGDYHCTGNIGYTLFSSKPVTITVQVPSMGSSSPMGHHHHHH
The experiment is described as above.

In experiment [4] the target is T4, FcγRIIIa(F) extracellular domain with C-terminal His tag (human, UniProt P08637 17-208).
T4 construct: extracellular domain; polymorphic form F158; also called FcγRIIIa F type
T4 sequence (P08637 other isoform, or with tags, fused parts or gaps): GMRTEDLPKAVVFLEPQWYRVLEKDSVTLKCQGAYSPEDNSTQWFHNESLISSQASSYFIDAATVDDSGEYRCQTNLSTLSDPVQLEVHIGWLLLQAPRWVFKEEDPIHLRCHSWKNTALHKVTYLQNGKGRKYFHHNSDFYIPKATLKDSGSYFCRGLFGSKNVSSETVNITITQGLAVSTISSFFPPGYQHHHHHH
The experiment is described as above.

Experiment [5] addresses T5, FcγRIIIa(V) extracellular domain with C-terminal His tag (human, UniProt P08637 17-208).
T5 construct: extracellular domain; polymorphic form V158; also called FcγRIIIa V type
Described as above.

The target of experiment [6] is T1, FcγRIa extracellular domain with …. The experiment is described as above. This is another data set of the same source.
Experimental: (§1) The antibody of interest was analyzed for its interaction with FcγR using a BiaCore™ T100, BiaCore™ A100, or BiaCore™ 4000 surface plasmon resonance system (GE Healthcare Japan Corp.). The running buffer used was HBS-EP+ (GE Healthcare Japan Corp.). The assay temperature was set to 25° C. The sensor chips used were: a chip prepared by immobilizing antigenic peptides onto Series S Sensor Chip CM5 (GE Healthcare Japan Corp.) by the amine coupling method; a chip prepared by immobilizing antigenic peptides biotinylated in advance onto Series S Sensor Chip SA (certified) (GE Healthcare Japan Corp.) through their interaction; a chip prepared by immobilizing protein L (ACTIGEN, BioVision, Inc.) onto Series S Sensor Chip CM5 (GE Healthcare Japan Corp.); and a chip prepared by immobilizing protein A/G (Thermo Fisher Scientific K.K.) onto Series S Sensor Chip CM5 (GE Healthcare Japan Corp.). The antibody of interest was captured onto any of these chips and allowed to interact with FcγR diluted with a running buffer. The antibody captured on the chip was washed off through the reaction of 10 mM glycine-HCl (pH 1.5) to regenerate the chip, which was repetitively used.
Experiment [7] has as its target T2, FcγRIIa(R) extracellular domain with …. Described as above. The source holds these as a separate data set.
Experimental: as §1
Experiment [8] concerns the target T3, FcγRIIa(H) extracellular domain with …. Described as above. This is another data set of the same source.
Experimental: as §1
The target in experiment [9] is T4, FcγRIIIa(F) extracellular domain with …. Described as above. This is another data set of the same source.
Experimental: as §1
Experiment [10] deals with T5, FcγRIIIa(V) extracellular domain with …. The description is as above. This is another data set of the same source.
Experimental: as §1
Experiment [11] has as its target T6, FcγRIIb extracellular domain with C-terminal His tag (human, UniProt P31994 43-217).
T6 construct: extracellular domain
T6 sequence: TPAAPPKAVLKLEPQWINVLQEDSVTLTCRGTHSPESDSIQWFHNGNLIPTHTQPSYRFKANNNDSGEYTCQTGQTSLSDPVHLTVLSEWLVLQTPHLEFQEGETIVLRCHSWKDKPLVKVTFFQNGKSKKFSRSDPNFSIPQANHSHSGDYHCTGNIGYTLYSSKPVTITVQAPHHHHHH
As to the kind of experiment: SPR (Biacore), captured antibody, FcγR analyte, 1:1 Langmuir fit; naturally occurring IgG1 (not afucosylated).
Experimental: as §1

Experiment [12] has as its target T6, FcγRIIb extracellular domain with …. As to the kind of experiment: SPR (Biacore), captured antibody, FcγR analyte, 1:1 Langmuir fit; afucosylated G1d; Table 8 reprint of Table 7.
Experimental: as §1
Experiment [13] has the same target. As to the kind of experiment: SPR (Biacore), captured antibody, FcγR analyte, 1:1 Langmuir fit; afucosylated antibody (same sequence as G1d, other glycoform).
Experiment [14] deals with T7, FcγRIIa H extracellular domain with C-terminal His tag (UniProt P12318 34-217, limits assumed).
T7 construct: extracellular domain; also called 2aH
T7 sequence: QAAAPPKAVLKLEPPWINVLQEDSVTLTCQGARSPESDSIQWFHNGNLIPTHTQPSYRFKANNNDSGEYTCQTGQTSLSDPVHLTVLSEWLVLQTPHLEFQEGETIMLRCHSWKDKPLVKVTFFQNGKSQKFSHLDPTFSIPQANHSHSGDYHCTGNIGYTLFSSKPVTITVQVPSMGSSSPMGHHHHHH
As to the kind of experiment: SPR (Biacore), as the text refers to Example 3.

Experiment [15] has as its target T8, FcγRIIa R extracellular domain with C-terminal His tag (UniProt P12318 34-217, limits assumed).
T8 construct: extracellular domain; also called 2aR
T8 sequence: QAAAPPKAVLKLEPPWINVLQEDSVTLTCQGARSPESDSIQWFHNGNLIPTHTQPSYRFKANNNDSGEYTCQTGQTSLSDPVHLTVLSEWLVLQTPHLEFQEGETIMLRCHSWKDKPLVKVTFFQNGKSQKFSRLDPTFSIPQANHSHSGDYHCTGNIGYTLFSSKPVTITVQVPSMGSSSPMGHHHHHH
The experiment is described as follows: SPR (Biacore), as the text refers to Example 3.

Experiment [16] concerns the target T9, FcγRIIb extracellular domain with C-terminal His tag (UniProt P31994 43-217, limits assumed).
T9 construct: extracellular domain; also called 2b
T9 sequence: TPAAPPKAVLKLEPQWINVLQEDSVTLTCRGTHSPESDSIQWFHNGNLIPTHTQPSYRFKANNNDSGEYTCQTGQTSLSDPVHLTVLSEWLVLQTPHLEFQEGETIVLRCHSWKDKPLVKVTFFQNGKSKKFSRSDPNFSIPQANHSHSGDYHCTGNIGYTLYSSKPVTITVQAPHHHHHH
As to the kind of experiment: SPR (Biacore), as the text refers to Example 3.

Experiment [17] addresses T10, FcγRIa extracellular domain with C-terminal His tag (UniProt P12314 16-292, limits assumed).
T10 construct: extracellular domain; also called 1a
The experiment is described as follows: SPR (Biacore), as the text refers to Example 3.

T1 sequence (P12314 other isoform, or with tags, fused parts or gaps): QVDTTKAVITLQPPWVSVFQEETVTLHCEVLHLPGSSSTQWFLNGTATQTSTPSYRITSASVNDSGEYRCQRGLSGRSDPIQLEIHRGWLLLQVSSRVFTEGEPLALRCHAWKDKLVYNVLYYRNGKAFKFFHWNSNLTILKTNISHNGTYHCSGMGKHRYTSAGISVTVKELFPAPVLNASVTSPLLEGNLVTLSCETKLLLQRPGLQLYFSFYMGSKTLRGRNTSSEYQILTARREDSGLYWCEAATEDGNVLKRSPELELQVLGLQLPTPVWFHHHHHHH
T5 sequence (P08637 other isoform, or with tags, fused parts or gaps): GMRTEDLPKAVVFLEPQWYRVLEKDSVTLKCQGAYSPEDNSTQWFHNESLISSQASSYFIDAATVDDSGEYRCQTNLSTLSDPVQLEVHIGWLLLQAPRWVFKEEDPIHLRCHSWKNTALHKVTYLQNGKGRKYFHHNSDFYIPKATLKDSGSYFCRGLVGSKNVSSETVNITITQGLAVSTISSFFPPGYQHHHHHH
T10 sequence (P12314 other isoform, or with tags, fused parts or gaps limits assumed): as the sequence (P12314 other isoform, or with tags, fused parts or gaps) above

B1: H240-G1d/L73-k0 (antibody, human IgG1, kappa)
heavy: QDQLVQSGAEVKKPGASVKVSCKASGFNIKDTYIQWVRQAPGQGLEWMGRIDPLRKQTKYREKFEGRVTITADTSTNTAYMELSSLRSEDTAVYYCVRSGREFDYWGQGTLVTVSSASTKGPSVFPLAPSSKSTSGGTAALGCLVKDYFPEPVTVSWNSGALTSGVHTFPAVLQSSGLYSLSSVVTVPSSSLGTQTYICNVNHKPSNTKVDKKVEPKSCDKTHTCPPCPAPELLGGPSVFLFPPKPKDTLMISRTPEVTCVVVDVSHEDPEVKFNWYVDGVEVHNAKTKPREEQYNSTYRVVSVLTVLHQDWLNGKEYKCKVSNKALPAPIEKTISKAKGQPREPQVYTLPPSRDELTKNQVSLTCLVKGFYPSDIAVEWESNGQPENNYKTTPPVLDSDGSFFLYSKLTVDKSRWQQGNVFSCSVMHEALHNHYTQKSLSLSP
light: DIQMTQSPSSLSASVGDRVTITCRASQDIHKYIAWYQQKPGQAPRLLIQYTSTLQPGVPSRFSGSGSGTDYTFTISSLQPEDIATYYCLQYEQLRTFGGGTKVEIKRTVAAPSVFIFPPSDEQLKSGTASVVCLLNNFYPREAKVQWKVDNALQSGNSQESVTEQDSKDSTYSLSSTLTLSKADYEKHKVYACEVTHQGLSSPVTKSFNRGEC
notes: anti-epiregulin IgG1; also called H240-G1d/H240-G1d/L73-k0; naturally occurring IgG1
Consider B1, for which the dissociation constant (Kd) in experiment [1] came to 0.23 nM; in [2] it was 880 nM; in [3], 660 nM; in experiment [4], 1400 nM; in experiment [5], 310 nM; in [6] it was 0.23 nM. Also, the Kd was determined as 880 nM in [7]; 660 nM in experiment [8]; 1400 nM in [9]; 310 nM in [10]; 6000 nM in [11].

B2: H240-afucosyl_G1d/L73-k0 (antibody, human IgG1, kappa)
heavy: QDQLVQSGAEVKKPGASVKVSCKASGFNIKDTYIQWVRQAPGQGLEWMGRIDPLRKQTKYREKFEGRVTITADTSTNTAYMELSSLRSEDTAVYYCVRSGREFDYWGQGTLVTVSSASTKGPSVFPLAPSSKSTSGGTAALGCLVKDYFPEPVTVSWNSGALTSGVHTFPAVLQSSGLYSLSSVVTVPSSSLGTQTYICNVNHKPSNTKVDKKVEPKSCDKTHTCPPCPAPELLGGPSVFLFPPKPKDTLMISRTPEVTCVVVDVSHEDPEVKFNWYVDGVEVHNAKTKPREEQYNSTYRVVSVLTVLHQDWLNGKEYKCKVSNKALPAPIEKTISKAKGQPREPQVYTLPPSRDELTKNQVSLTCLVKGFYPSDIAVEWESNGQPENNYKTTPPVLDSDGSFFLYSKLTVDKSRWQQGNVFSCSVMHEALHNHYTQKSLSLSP
light: DIQMTQSPSSLSASVGDRVTITCRASQDIHKYIAWYQQKPGQAPRLLIQYTSTLQPGVPSRFSGSGSGTDYTFTISSLQPEDIATYYCLQYEQLRTFGGGTKVEIKRTVAAPSVFIFPPSDEQLKSGTASVVCLLNNFYPREAKVQWKVDNALQSGNSQESVTEQDSKDSTYSLSSTLTLSKADYEKHKVYACEVTHQGLSSPVTKSFNRGEC
modifications: afucosylated (fucose-deficient sugar chain)
notes: afucosylated form of the anti-epiregulin IgG1 H240-G1d/L73-k0; also called afucosylated antibody
Regarding B2, the dissociation constant Kd in experiment [1] is 0.43 nM; in [2], 490 nM; in experiment [3], 780 nM; in experiment [4], 78 nM; in experiment [5], 6.9 nM; in experiment [6] it was 0.43 nM. In addition, the dissociation constant (Kd) came to 490 nM in experiment [7]; 780 nM in [8]; 78 nM in experiment [9]; 6.9 nM in experiment [10]; 2600 nM in [12]; 2600 nM in experiment [13].

B3: GpH7-B3/GpL16-k0 (antibody, human IgG1, kappa)
heavy: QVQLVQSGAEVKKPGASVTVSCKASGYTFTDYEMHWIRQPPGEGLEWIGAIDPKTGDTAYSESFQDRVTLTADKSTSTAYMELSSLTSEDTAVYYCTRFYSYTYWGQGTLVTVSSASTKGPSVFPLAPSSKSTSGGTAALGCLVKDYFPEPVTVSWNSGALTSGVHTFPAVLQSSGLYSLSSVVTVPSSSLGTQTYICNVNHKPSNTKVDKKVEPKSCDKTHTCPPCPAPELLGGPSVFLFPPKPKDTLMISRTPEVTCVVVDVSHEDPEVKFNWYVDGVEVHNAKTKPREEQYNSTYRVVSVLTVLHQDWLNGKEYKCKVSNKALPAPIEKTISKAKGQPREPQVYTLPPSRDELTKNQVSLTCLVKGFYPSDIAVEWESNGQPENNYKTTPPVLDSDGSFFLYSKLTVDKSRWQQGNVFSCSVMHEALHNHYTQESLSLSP
light: DIVMTQSPLSLPVTPGEPASISCQASESLVHSNRNTYLHWYLQKPGQSPQLLIYKVSNRFSGVPDRFSGSGSGTDFTLKISRVEAEDVGVYYCSQNTHVPPTFGQGTKVEIERTVAAPSVFIFPPSDEQLKSGTASVVCLLNNFYPREAKVQWKVDNALQSGNSQESVTEQDSKDSTYSLSSTLTLSKADYEKHKVYACEVTHQGLSSPVTKSFNRGEC
notes: also called HoCon Ab
Turning to B3, the binding result in [14], in [15], in experiment [16] and in experiment [17] was “binds” throughout.

The values are drawn from US20260167699A1 (Chugai, published 2026).
